Measurements from the supplement of paper PMC7125110.
± gives the standard error. For part of these data: This sample holds only a part of the variants without activity.

B1: glmS ribozyme (parent)
chain: AUAAAAGCGCCAGAACUACAGAAAUGUAGUUGACGAGGAGGAGGUUUAUCGAAUUUUCGGCGGAUGCCUCCAAA

Legend:
Details in all cases: with glucosamine-6-phosphate
glucosamine-6-phosphate [1] = variants of: B1; assay: kcat; higher = faster cleavage; RNA array
Summary of the method: (§1)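 Over ~14 h at 37 °C, tiles were imaged as glucosamine-6-phosphate (40 μM to 10 mM) in HEPES/KCl/Mg(OAc)2 buffer flowed across sequenced MiSeq chips. The chips carried barcoded ribozyme variants transcribed in situ by E. coli RNA polymerase and tracked with a hybridised Cy3 probe. After normalisation to baseline and to non-cleaving reference variants, one- or two-exponential decay fits of per-tile medians gave kobs. kcat and KM followed from weighted Michaelis–Menten fits across concentrations.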

glucosamine-6-phosphate [2] = variants of: B1; assay: KM; higher = weaker cofactor use; RNA array
Summary of the method: as §1

glucosamine-6-phosphate [3] = variants of: B1; assay: self-cleavage kobs at 40 uM GlcN6P; higher = faster cleavage; RNA array
Summary of the method: as §1

glucosamine-6-phosphate [4] = variants of: B1; assay: self-cleavage kobs at 160 uM GlcN6P; higher = faster cleavage; RNA array
Summary of the method: as §1

glucosamine-6-phosphate [5] = variants of: B1; assay: self-cleavage kobs at 640 uM GlcN6P; higher = faster cleavage; RNA array
Summary of the method: as §1

glucosamine-6-phosphate [6] = variants of: B1; assay: self-cleavage kobs at 2500 uM GlcN6P; higher = faster cleavage; RNA array
Summary of the method: as §1

glucosamine-6-phosphate [7] = variants of: B1; assay: self-cleavage kobs at 10000 uM GlcN6P; higher = faster cleavage; RNA array
Summary of the method: as §1

Row | Variant | kcat (glucosamine-6-phosphate [1]) [s⁻¹] | KM (glucosamine-6-phosphate [2]) [µM] | self-cleavage kobs at 40 uM GlcN6P (glucosamine-6-phosphate [3]) [s⁻¹] | self-cleavage kobs at 160 uM GlcN6P (glucosamine-6-phosphate [4]) [s⁻¹] | self-cleavage kobs at 640 uM GlcN6P (glucosamine-6-phosphate [5]) [s⁻¹] | self-cleavage kobs at 2500 uM GlcN6P (glucosamine-6-phosphate [6]) [s⁻¹] | self-cleavage kobs at 10000 uM GlcN6P (glucosamine-6-phosphate [7]) [s⁻¹]
1 | C61G C70G | 1.85e-05 ± 5.6e-06 |  |  |  |  |  | 
2 | A15G U54A |  | 508 ± 200 | 0.000663 ± 0.00011 | 0.00251 ± 0.00049 | 0.006 ± 0.0015 | 0.00683 ± 0.0018 | 0.0333 ± 0.014
3 | A36U |  | 584 ± 170 |  |  |  |  | 
4 | A5U A6C A12G G32A G51U |  |  | < 1e-05 |  |  |  | < 1e-05
5 | U31A U45A |  | 813 ± 360 | 0.000743 ± 0.0001 | 0.00207 ± 0.00071 | 0.00537 ± 0.0013 | 0.0106 ± 0.0024 | 0.0333 ± 0.01
6 | A64U G66A C67U | 1.79e-05 ± 6.9e-06 |  | < 1e-05 |  |  |  | 
7 | A64G U65A | 0.00547 ± 0.00084 | 1850 ± 410 | 0.000129 ± 2.2e-05 | 0.000381 ± 7.6e-05 | 0.00133 ± 0.00024 | 0.00387 ± 0.00065 | 0.00429 ± 0.00072
8 | G62C C70A | 1.23e-05 ± 3.2e-06 |  |  |  |  |  | 
9 | A1C U2A A3U G7A C8G G9C C10G A12C G13A A14G |  |  | 6.43e-05 ± 1.4e-05 |  |  |  | 0.00344 ± 0.00044
10 | G60A U69G | 1.18e-05 ± 5e-06 |  |  |  |  |  | 
11 | C58A C67G | 9.61e-05 ± 2.2e-05 |  |  | 3.39e-05 ± 1.3e-05 | 6.98e-05 ± 9.8e-06 | 6.08e-05 ± 1e-05 | 0.000124 ± 1.3e-05
12 | G59A C67G | 1.27e-05 ± 2.9e-06 |  |  |  |  |  | 
13 | G38U C71A |  | 35.8 ± 15 |  |  |  |  | 
14 | A6C A15U A33U U69G |  |  | < 1e-05 |  |  |  | 
15 | G59C U69G | 1.85e-05 ± 5.2e-06 |  | < 1e-05 |  |  |  | 
16 | G59C U69A | 2.45e-05 ± 5.3e-06 |  |  |  |  |  | 
17 | A64G U69G | 4.12e-05 ± 5.6e-06 |  |  |  | 4.4e-05 ± 1.2e-05 | 4.93e-05 ± 1.2e-05 | 3.35e-05 ± 8.6e-06
18 | C58U C68U | 6.04e-05 ± 7.7e-06 | 2460 ± 1000 |  |  |  | 2.71e-05 ± 8.5e-06 | 4.92e-05 ± 7.3e-06
19 | C61U C71U | 2.55e-05 ± 4.8e-07 | 2880 ± 200 | < 1e-05 | < 1e-05 | < 1e-05 |  | 
20 | C68G C71U | < 1e-05 |  |  |  |  |  | 
21 | G59U C70A | 1.64e-05 ± 5.5e-06 |  |  |  |  |  | 
22 | A64G C67G | 0.000471 ± 1.9e-05 | 2090 ± 180 |  |  | 0.000111 ± 1.5e-05 | 0.000275 ± 6.1e-05 | 0.000386 ± 3.6e-05
23 | G35U G51U |  | 31.5 ± 11 |  |  |  |  | 
24 | C11A A33U |  | 983 ± 40 |  |  |  |  | 
25 | U54A C61A |  | 864 ± 400 |  |  |  |  | 
26 | A6C A15U G40A |  |  | < 1e-05 |  |  | < 1e-05 | < 1e-05
